Results as given in the RNAGym collection of RNA variant scans (doi:10.1093/molbev/msab373).

B1: Azoarcus group I ribozyme (parent)
chain: GUGCCUUGCGCCGGGAAACCACGCAAGGGAUGGUGUCAAAUUCGGCGAAACCUAAGCGCCCGCCCGGGCGUAUGGCAACGCCGAGCCAAGCUUCGGCGCCUGCGCCGAUGAAGGUGUAGAGACUAGACGGCACCCACCUAAGGCAAACGCUAUGGUGAAGGCAUAGUCCAGGGAGUGGCGAAAGUCACACAAACCGG

Variants of: B1
Assay: reverse-splicing fitness (ratio to wild type); higher = more active; in vitro selection; Mg2+ level not given
How it was run: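 An in vitro group I ribozyme library with randomized positions was T7-transcribed and gel-purified. In triplicate, 10 pmol RNA in EPPS pH 7.5 was reacted with 50 pmoles of a 30-nt RNA substrate for 1 h at 37 °C across several added MgCl2 levels (1–48 mM), then stopped with EDTA. Products were reverse transcribed from a substrate-complementary primer, PCR-amplified and sequenced (HiSeq 4000). Fitness is a variant's read proportion after selection over that before, normalised to wild type.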

Variant | reverse-splicing fitness
GUGCCUUGCGCCGGGAAACCACGCAAGGGAUGGUGUCAAAUUCGGCGAAACCUAAGCGCCCGCCCGGGCGUAUGGCAACGCCGAGCCAAGCUUCGGCGCCUGCGCCGAUGGAGGUGUAGCGACUAGACGGCACCCACCUAAGGCUAACGCUAUGGUGAAGGCAUAGUCCAGGGAGGGGCGAAAGUCACACAAACCGG [A111G A120C A145U U176G] | 0.172
GUGCCUUGCGCCGGGAAACCACGCAAGGGAUGGUGUCAAAUUCGGCGAAACCUAAGCGCCCGCCCGGGCGUAUGGCAACGCCGAGCCAAGCUUCGGCGCCUGCGCCGAUGGAGGUGUAGCGACUAGACGGCACCCACCUAAGGCUAACGCUAUGGUGAAGGCAUAGUCCAGGGAGCGGCGAAAGUCACACAAACCGG [A111G A120C A145U U176C] | 0.45
GUGCCUUGCGCCGGGAAACCACGCAAGGGAUGGUGUCAAAUUCGGCGAAACCUAAGCGCCCGCCCGGGCGUAUGGCAACGCCGAGCCAAGCUUCGGCGCCUGCGCCGAUGGAGGUGUAGCGACUAGACGGCACCCACCUAAGGCUAACGCUAUGGUGAAGGCAUAGUCCAGGGAGAGGCGAAAGUCACACAAACCGG [A111G A120C A145U U176A] | 0.482
GUGCCUUGCGCCGGGAAACCACGCAAGGGAUGGUGUCAAAUUCGGCGAAACCUAAGCGCCCGCCCGGGCGUAUGGCAACGCCGAGCCAAGCUUCGGCGCCUGCGCCGAUGGAGGUGUAGCGACUAGACGGCACCCACCUAAGGCUAACGCUAUGGUGAAGGCAUAGUCAAGGGAGUGGCGAAAGUCACACAAACCGG [A111G A120C A145U C169A] | 0.0133
GUGCCUUGCGCCGGGAAACCACGCAAGGGAUGGUGUCAAAUUCGGCGAAACCUAAGCGCCCGCCCGGGCGUAUGGCAACGCCGAGCCAAGCUUCGGCGCCUGCGCCGAUGGAGGUGUAGCGACUAGACGGCACCCACCUAAGGCUAACGCUAUGGUGAAGGCAUAGUCGAGGGAGUGGCGAAAGUCACACAAACCGG [A111G A120C A145U C169G] | 0.0128
GUGCCUUGCGCCGGGAAACCACGCAAGGGAUGGUGUCAAAUUCGGCGAAACCUAAGCGCCCGCCCGGGCGUAUGGCAACGCCGAGCCAAGCUUCGGCGCCUGCGCCGAUGGAGGUGUAGCGACUAGACGGCACCCACCUAAGGCUAACGCUAUGGUGAAGGCAUAGUCUAGGGAGUGGCGAAAGUCACACAAACCGG [A111G A120C A145U C169U] | 0.262
GUGCCUUGCGCCGGGAAACCACGCAAGGGAUGGUGUCAAAUUCGGCGAAACCUAAGCGCCCGCCCGGGCGUAUGGCAACGCCGAGCCAAGCUUCGGCGCCUGCGCCGAUGGAGGUGUAGCGACUAGACGGCACCCACCUAAGGCAAACGAUAUGGUGAAGGCAUAGUCCAGGGAGUGGCGAAAGUCACACAAACCGG [A111G A120C C150A] | 0.124
GUGCCUUGCGCCGGGAAACCACGCAAGGGAUGGUGUCAAAUUCGGCGAAACCUAAGCGCCCGCCCGGGCGUAUGGCAACGCCGAGCCAAGCUUCGGCGCCUGCGCCGAUGGAGGUGUAGCGACUAGACGGCACCCACCUAAGGCAAACGAUAUGGUGAAGGCAUAGUCAAGGGAGGGGCGAAAGUCACACAAACCGG [A111G A120C C150A C169A U176G] | 0.00468
GUGCCUUGCGCCGGGAAACCACGCAAGGGAUGGUGUCAAAUUCGGCGAAACCUAAGCGCCCGCCCGGGCGUAUGGCAACGCCGAGCCAAGCUUCGGCGCCUGCGCCGAUGGAGGUGUAGCGACUAGACGGCACCCACCUAAGGCAAACGAUAUGGUGAAGGCAUAGUCAAGGGAGAGGCGAAAGUCACACAAACCGG [A111G A120C C150A C169A U176A] | 0.0158
GUGCCUUGCGCCGGGAAACCACGCAAGGGAUGGUGUCAAAUUCGGCGAAACCUAAGCGCCCGCCCGGGCGUAUGGCAACGCCGAGCCAAGCUUCGGCGCCUGCGCCGAUGGAGGUGUAGCGACUAGACGGCACCCACCUAAGGCAAACGAUAUGGUGAAGGCAUAGUCAAGGGAGCGGCGAAAGUCACACAAACCGG [A111G A120C C150A C169A U176C] | 0.0167
GUGCCUUGCGCCGGGAAACCACGCAAGGGAUGGUGUCAAAUUCGGCGAAACCUAAGCGCCCGCCCGGGCGUAUGGCAACGCCGAGCCAAGCUUCGGCGCCUGCGCCGAUGGAGGUGUAGCGACUAGACGGCACCCACCUAAGGCUAACGCUAUGGUGAAGGCAUAGUCUAGGGAGAGGCGAAAGUCACACAAACCGG [A111G A120C A145U C169U U176A] | 0.0589
GUGCCUUGCGCCGGGAAACCACGCAAGGGAUGGUGUCAAAUUCGGCGAAACCUAAGCGCCCGCCCGGGCGUAUGGCAACGCCGAGCCAAGCUUCGGCGCCUGCGCCGAUGGAGGUGUAGCGACUAGACGGCACCCACCUAAGGCUAACGCUAUGGUGAAGGCAUAGUCUAGGGAGGGGCGAAAGUCACACAAACCGG [A111G A120C A145U C169U U176G] | 0.00772
GUGCCUUGCGCCGGGAAACCACGCAAGGGAUGGUGUCAAAUUCGGCGAAACCUAAGCGCCCGCCCGGGCGUAUGGCAACGCCGAGCCAAGCUUCGGCGCCUGCGCCGAUGGAGGUGUAGCGACUAGACGGCACCCACCUAAGGCUAACGCUAUGGUGAAGGCAUAGUCUAGGGAGCGGCGAAAGUCACACAAACCGG [A111G A120C A145U C169U U176C] | 0.0719
GUGCCUUGCGCCGGGAAACCACGCAAGGGAUGGUGUCAAAUUCGGCGAAACCUAAGCGCCCGCCCGGGCGUAUGGCAACGCCGAGCCAAGCUUCGGCGCCUGCGCCGAUGGAGGUGUAGCGACUAGACGGCACCCACCUAAGGCAAACGAUAUGGUGAAGGCAUAGUCAAGGGAGUGGCGAAAGUCACACAAACCGG [A111G A120C C150A C169A] | 0.00922
GUGCCUUGCGCCGGGAAACCACGCAAGGGAUGGUGUCAAAUUCGGCGAAACCUAAGCGCCCGCCCGGGCGUAUGGCAACGCCGAGCCAAGCUUCGGCGCCUGCGCCGAUGGAGGUGUAGCGACUAGACGGCACCCACCUAAGGCAAACGAUAUGGUGAAGGCAUAGUCGAGGGAGUGGCGAAAGUCACACAAACCGG [A111G A120C C150A C169G] | 0.00862
